Experimental data reported in US20170210824A1.

Target: 3-pTza peptide library (Ac-Cys.G/A.G/A.G/A.G/A.X.G/A.G/A.G/A.G/A-CONH2, X = 3-pTza)
Assay: 3-pTza peptide dot blot array

B1: 3-pHis mAb SC44-8 (antibody, V domains shown)
VH: ESGRGLVQPGGSLTLTCTASGFSIDSYGFSWVRQAPGKGLEHIGYLTAGGRAFYASWAKSRSTITRNTNENTVTLKMTSLTAADTATYFCAKLGSGNPVAIWGPGTLVTVSS
VL: DPVMTPTPSFTSAAVGGTVTINCQSSQSVWRNKNLAWYQQKPGQPPKRLIYAIATLDSGVPSRFSGSGSGTQFTLTISDVQCDDAATYYCVGHYGSENDAYYAFGGGTEVVVKG
  lowest amount detected: 800 pg
